Broadly, the Km is the concentration of substrate that gives half-maximal velocity. A word on the Vmax: it is the rate approached at saturating substrate. In general, kcat refers to the maximal rate divided by the concentration of active sites. By kcat/Km is commonly meant the second-order rate constant that governs catalysis at low substrate concentration.

The subject of data set [1] is T1, NC(=O)C1=CN([C@@H]2O[C@H](COP(=O)(O)OP(=O)(O)OC[C@H]3O[C@@H](n4cnc5c(N)ncnc54)[C@H](O)[C@@H]3O)[C@@H](O)[C@H]2O)C=CC1.
T1 construct: N-terminally 6x-His-tagged
The data set is described as follows: purified protein. Particulars: co-enzyme binding site, varied: cofactor. It counts as biochemical, Escherichia coli.

Data set [2] has as its system T2, NC(=O)C1=CN([C@@H]2O[C@H](COP(=O)(O)OP(=O)(O)OC[C@H]3O[C@@H](n4cnc5c(N)ncnc54)[C@H](OP(=O)(O)O)[C@@H]3O)[C@@H](O)[C@H]2O)C=CC1.
T2 construct: N-terminally 6x-His-tagged
Nature of the data set: purified protein. It counts as biochemical, Escherichia coli. Particulars: varied: cofactor.

The test system of a further data set is T3, O=C(O)C(=O)CCO.
T3 construct: N-terminally 6x-His-tagged
Nature of the data set: purified protein. Format: biochemical, Escherichia coli.

For data set [3], the target named is T4, Ec.Mdh^5Q D34G (OHB reductase, engineered E. coli malate dehydrogenase) (Escherichia coli, UniProt P61889, I12V/D34G/R81A/M85Q/D86S/G179D).
T4 construct: N-terminally 6x-His-tagged
The data set is described as follows: specific activity of purified enzyme at […] OHB and […] NADPH. It counts as biochemical.

For data set [4], the target named is T4, Ec.Mdh^5Q D34G (OHB reductase, engineered E. coli malate dehydrogenase). Nature of the data set: specific activity of purified enzyme at […] OHB and […] NADH. Format: biochemical.
Where [5] appears, read: Asp34 confers cofactor specificity.
The mark [6] stands for this setting: co-enzyme binding site, Asp34 disfavours the […]'-phosphate group.
Where [7] appears, read: […]'-phosphate group near positions […] and […] (selectivity control loop, cofactor binding motif of the Rossmann fold).
Setting [8] is: NADPH uncompetitive substrate inhibition (Ki =[…]).

T4 sequence (P61889 whole entry I12V/D34G/R81A/M85Q/D86S/G179D): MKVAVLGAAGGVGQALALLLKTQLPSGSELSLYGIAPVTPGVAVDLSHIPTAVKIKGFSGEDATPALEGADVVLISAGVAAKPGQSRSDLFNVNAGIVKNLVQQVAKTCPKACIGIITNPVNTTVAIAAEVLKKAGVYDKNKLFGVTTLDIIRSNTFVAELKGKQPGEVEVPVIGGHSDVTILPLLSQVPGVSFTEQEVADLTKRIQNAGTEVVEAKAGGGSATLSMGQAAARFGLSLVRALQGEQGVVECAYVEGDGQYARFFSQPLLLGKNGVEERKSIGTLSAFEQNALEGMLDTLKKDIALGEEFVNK

Consider “Ec.Mdh^5Q (OHB reductase, engineered E. coli malate dehydrogenase) (Escherichia coli K-12; D86S/G179D/I12V/M85Q/R81A)”, for which, in data set [1] (setting [5]), the Km turned out to be 40 µM, the maximal velocity (Vmax) was 67.7 µmol/min/mg, the kcat worked out at 36.5 ± 1.68 s⁻¹ and the kcat/Km stood at 1.03e+06 ± 67500 M⁻¹ s⁻¹. In data set [2] (setting [6]), the Michaelis constant (Km) turned out to be 320 µM, the maximal velocity (Vmax) came out at 5.56 µmol/min/mg, the catalytic constant (kcat) came to 2.99 ± 0.35 s⁻¹ and the specificity constant (kcat/Km) was 9500 ± 50 M⁻¹ s⁻¹. In the data set with O=C(O)C(=O)CCO (NADH), the Km is 1840 µM, the Vmax came to 138 µmol/min/mg, the kcat stood at 74.9 ± 5.63 s⁻¹ and the kcat/Km amounted to 44900 ± 15200 M⁻¹ s⁻¹.

Consider “Ec.Mdh^7Q (OHB reductase, engineered E. coli malate dehydrogenase) (Escherichia coli K-12; D34G/D86S/G179D/I12V/I35R/M85Q/R81A)”, for which, in data set [1], the Km is 270 µM, the maximum rate (Vmax) is 20 µmol/min/mg, the kcat stood at 10.8 ± 1.07 s⁻¹ and the kcat/Km came to 40400 ± 1710 M⁻¹ s⁻¹. Further, in data set [2] (setting [7]), the Michaelis constant (Km) came to 100 µM, the Vmax was found to be 119 µmol/min/mg, the turnover number (kcat) was found to be 64 ± 9.97 s⁻¹ and the catalytic efficiency (kcat/Km) turned out to be 645000 ± 76200 M⁻¹ s⁻¹. In the data set with O=C(O)C(=O)CCO (setting [8]), the Km was 1080 µM, the Vmax is 155 µmol/min/mg, the turnover number (kcat) came out at 83.4 ± 3.4 s⁻¹ and the specificity constant (kcat/Km) stood at 80300 ± 17300 M⁻¹ s⁻¹.

`NC(=O)C1=CN([C@@H]2O[C@H](COP(=O)(O)OP(=O)(O)OC[C@H]3O[C@@H](n4cnc5c(N)ncnc54)[C@H](OP(=O)(O)O)[C@@H]3O)[C@@H](O)[C@H]2O)C=CC1` [NADPH]: the “specific activity of purified enzyme at 2 mM OHB and 0.25 mM NADPH” value in data set [3] was 35 ± 3 U mg^−1 (specific activity).

As for `NC(=O)C1=CN([C@@H]2O[C@H](COP(=O)(O)OP(=O)(O)OC[C@H]3O[C@@H](n4cnc5c(N)ncnc54)[C@H](O)[C@@H]3O)[C@@H](O)[C@H]2O)C=CC1` [NADH], in data set [4], the “specific activity of purified enzyme at 2 mM OHB and 0.25 mM NADH” value is recorded as 23 ± 2 U mg^−1 (specific activity).

For the origin of these results see publication PMC11882521, “Cofactor engineering for improved production of 2,4-dihydroxybutyric acid via the synthetic homoserine pathway” (Frontiers in Bioengineering and Biotechnology, 2025).
